This test deals with PfCSP full length (Plasmodium falciparum (isolate NF54), UniProt P19597). As to the kind of experiment: ELISA AUC.
PfCSP full length, sequence (P19597 20-375): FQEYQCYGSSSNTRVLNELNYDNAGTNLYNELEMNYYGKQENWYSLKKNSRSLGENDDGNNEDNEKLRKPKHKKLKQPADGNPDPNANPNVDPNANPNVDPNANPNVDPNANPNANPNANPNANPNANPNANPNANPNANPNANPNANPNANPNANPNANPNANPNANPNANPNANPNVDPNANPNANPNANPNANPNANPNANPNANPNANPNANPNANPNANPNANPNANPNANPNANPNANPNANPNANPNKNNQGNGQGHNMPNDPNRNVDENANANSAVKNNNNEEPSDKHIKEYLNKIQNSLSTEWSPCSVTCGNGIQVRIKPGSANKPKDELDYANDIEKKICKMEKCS

B1: CL-509177 (antibody, V domains shown)
VH: QVQLVESGGGVVQPGRSLRLSCAASGFSFSSYGMHWVRQTPGKGLEWVAIIWYDGSNKFYADSVKGRFIISRDNSKNTLYLQMNSLRAEDTAVYYCARDGGYSTSAGDFDYWGQGTLVTVSS
VL: EIVLTQSPGTLSLSPGERATLSCRASQSVSSSYLAWYQQKPGQAPRLLIYGASSRATGIPDRFSGRGSGTDFTLTISRLEPEDFAVYYCQQYVSSFTFGPGTKVDIN
modifications: peptides N-terminally acetylated and C-terminally amidated
B1 came in with a binding score of 1.17.

B2: CL-437934 (antibody, V domains shown)
VH: QVQLVASGGAVVQPGRSLRLSCAASGFTFSNSGMHWVRQAPGQGLEWVAIIWYDGGNKYYADSVKGRFTISRDNSKNTLYLQMNSLRAEDTAVYYCVRAYYEILTTYNKDCCYGMDVWGQGTTVTVSS
VL: not shown
modifications: peptides N-terminally acetylated and C-terminally amidated
As for B2, the binding score is 2.4.

B3: CL-441734 (antibody, V domains shown)
VH: QVQLVESGGGVVQPGRSLRLSCAASGFTFSSHGMHWVRQAPVKGLEWVAVIWYDGSNKYYADSVKGRFTISRDNSKNTLYLQMNSLRAEDTAVYYCARVEYSRSSGDYYYYGLDVWGQGTTVTVSS
VL: EIVMTQSPATLSVSPGERATLSCRASQSVSSNLAWYQQKPGQAPRLLIYGASTRATGIPARFSGSGSGTEFTLTISSLQSEDFAVYYCQQYDNWWTFGQGTKVEIK
modifications: peptides N-terminally acetylated and C-terminally amidated
Molecule B3 returned a binding score of 2.3.

B4: CL-511073 (antibody, V domains shown)
VH: QVQLVESGGGVVQPGRSLRLSCAASGFSFSSHGMHWVRQAPGKGLEWVSIIWYDGSNKFYADSVKGRFTISRDNSKNTLYLQMNSLRAEDTAVYYCARDGYDVLTGHYNWFDPWGQGTLVTVSS
VL: EIVMTQSPATLSVSPGERATLSCRASQSVSSKLAWYQQKPGQAPRLLIYGASTRATGIPARFSGSGSGTDFTLTISSLQSEDFAVYYCQQYNNWWTFGHGTKVEIK
modifications: peptides N-terminally acetylated and C-terminally amidated
As to B4, the binding score was 2.15.

B5: CL-509025 (antibody, V domains shown)
VH: QVQLVESGGGVVQPGRSLRLSCVASGFTFSDYGMHWVRQAPGKGLEWVAVIWYDGTKEFFADSVKGRFTISRDNSKDTLYLQMNSLRAEDTGIYYCATYKWNSHLDYWGQGTLVTVSS
VL: EIVLTQSPATLSLSPGERATLSCRASQTISSYLAWYQQKPGQAPRLLIYDASNRATGIPARFSGSGSGTDFTLTISSLEPEDFTVYYCQQRSNWPLTFGGGTKVGIK
modifications: peptides N-terminally acetylated and C-terminally amidated
On to B5, for which the binding score was 1.64.

B6: CL-437762 (antibody, V domains shown)
VH: QVQLVESGGGVVQPGRSLRLSCAASGFTFSNYGMYWVRQAPGKGLEWVAVIWYDGSNKYYADSVKGRFTISRDNSKNTLYLQMNSLRAEDTAFYYCARPQYSGSGSYFDYWGQGTLVTVSS
VL: not shown
modifications: peptides N-terminally acetylated and C-terminally amidated
B6 showed a binding score of 2.5.

B7: CL-510632 (antibody, V domains shown)
VH: QVQLVESGGGVVQPGRSLRLSCAASGFTFSNYGMHWVRQAPGKGLEWVAVIWYDGSNKFYADSVKGRFTISRDNSKNTLYLQTNSLRAEDTAVYYCARVYYYDSGNYLDYWGQGTLVAVSS
VL: DIQMTQSPSSVSASVGDRVTITCRASQGINNCLAWYQQKPGKAPKLLIYAASSLQSGVPSRFSGSGSGTDFTLTISNLQPEDFATYCCQQANSFPWTFGQGTKVEIK
modifications: peptides N-terminally acetylated and C-terminally amidated
B7 yielded a binding score of 1.9.

B8: CL-513279 (antibody, V domains shown)
VH: QVQLVESGGGVVQPGRSLRLSCAASGFTFSNFGMHWVRQAPVKGLEWVALIWYDGSNKFYADSVQGRFTISRDNSKNILYLQMNSLRAEDTAVYYCAKVEARGVDYHSYGMDVWGQGTTVTVSS
VL: DIQMTQSPSTLSASVGDRVTITCRASQSISSWLAWYQQKPGKAPQLLIYKASSLESGVPSRFSGSGSGTEFTLTISSLQPDDFATYYCQQYKYYWTFGQGTKVEIK
modifications: peptides N-terminally acetylated and C-terminally amidated
B8: the binding score worked out at 2.06.

B9: CL-513780 (antibody, V domains shown)
VH: QVQLVESGGGVVQPGRSLRLSCTASGFIFSNYGMYWVRQAPGKGLDWVALIWYDGSNKYYVGSVKGRFTISRDNSKNTLYLQMNSLRAEDTAVYYCARAGKYSGSGSYLDSWGQGTLVTVSS
VL: DIQMTPSPSILSASVGDRVTITCRASQNISSWLAWYQQKPGKAPKLLIYKASSLESGVPSRFSGSGSGTEFTLTISSLQPDDFATYFCQQYYSYWTFGQGTKVEIK
modifications: peptides N-terminally acetylated and C-terminally amidated
The molecule B9 returned a binding score of 2.48.

B10: CL-509494 (antibody, V domains shown)
VH: QVQLVESGGGVVQPGRSLRLSCAASGFTFSNFGMHWVRQSPGRGLEWVAIIWYDGSHKFYADSVKGRFTISRDNSKNTLYLQMNSLRAEDTAVYYCAKSEQRTNDHYYKYGMDVWGQGTTVTVST
VL: DIQMTQSPSTLSASVGDRVTITCRASQSISSWLAWYQQKPGKAPTLLIYKASSLESGVPSRFSGSGSGTEFTLTISSLQPDDFATYYCQQYTNYWTFGQGTKVEIK
modifications: peptides N-terminally acetylated and C-terminally amidated
In turn, B10 gave a binding score of 1.93.

B11: CL-512264 (antibody, V domains shown)
VH: QVQLVESGGGVVQPGRSLRLSCVTSGFTFSNFGMHWVRQAPGKGLEWVAIIWYDGSNKFYADSLKGRFTISRDNSKNTLFLQMNSLRAEDTAVYYCARAHTVTTANDKYGTDVWGQGTTVTVSS
VL: DIQMTQSPSTLSASVGDRVTITCRASQSISSWLAWYQHKPGKAPKLLIYKASSLESGVPSRFSGSGSGTEFTLTISSLQPDDFATYFCQQYNSYWTFGQGTKVEIK
modifications: peptides N-terminally acetylated and C-terminally amidated
B11 had a binding score of 2.54.

B12: CL-515284 (antibody, V domains shown)
VH: QVQLVGSGGGVVQSGRSLRLSCAASGFTFSNFGMHWVRQTPDKGLEWLAIIWYDGSHKFYVDSVKGRFTISRDNSMNTLFLQMNSLRAEDTGVYYCVRSWNYADSKYGMDVWGQGTTVTVSS
VL: DIQMTQSPSTLSASVGDRVTITCRASQSISSWLAWYQQKPGKAPNLLIYKASSLESGVPSRFSGSGSGTEFTLTISSLQPDDFATYYCQQYYNYWTFGQGTKVEIK
modifications: peptides N-terminally acetylated and C-terminally amidated
In turn, B12 returned a binding score of 2.19.

B13: CL-510092 (antibody, V domains shown)
VH: QVQLVESGGGVVQPGTSLRLSCAASGFTFSNFGMYWVRQAPGKGLEWVALIWYDGSNKFYEDSVKGRFTISRDNSKNTLYLQMNSLRAEDTAVYYCAKDGGYSGPGKYGFFRHWGQGSLVTVSS
VL: DIQLTQSPSTLSASVGDRVTITCRASQSISNWLAWYQQKPGKAPKLLIYKASSLESGVPSRFSGNGSGTEFTLTISSLQPDDFATYYCHQYNFYWTFGQGTKVEIK
modifications: peptides N-terminally acetylated and C-terminally amidated
On to B13, for which the binding score stood at 2.38.

B14: CL-531383 (antibody, V domains shown)
VH: QVQLVESGGGVVQPGRSLRLSCAASGFTFSSFGMHWVRQTPVKGLEWVALIWYDGSHKFYADSVRGRFIISRDNSKNTLFLQMNSLRAEDTAIYYCAKVINYGSGNYYNNYKYTMDVWGQGTTVTVSS
VL: DIQMTQSPSTLSASVGDRVTITCRASQSISSWLAWYQQKPGKAPKVLIYKASSLESGVPSRFSGSGSGTEFTLTISSLQPDDFATYYCQQYNTYWTFGQGTKVEIK
modifications: peptides N-terminally acetylated and C-terminally amidated
For the molecule B14, the binding score was 2.64.

B15: CL-514146 (antibody, V domains shown)
VH: QVQLVESGGGVVQPGRSLRLSCAVSGFTFSNSGMHWVRQAPGKGLEWVAIIWYDGNNKFYADSVKGRFTISRDNSKNTLYLQMNSLRAEDTSIYYCARAYPSGNYGDKYGMDVWGQGTTVTVSS
VL: DIQMTQSPSTLSASVGDRVTITCRASQSISSWLAWFQQKPGNAPKLLIYKASSLESGVPSRFSGSGSGTEFTLTINSLQPDDFATYYCQQYNSFWTFGQGTKVEIK
modifications: peptides N-terminally acetylated and C-terminally amidated
B15 returned a binding score of 2.39.

B16: CL-510700 (antibody, V domains shown)
VH: QVQLVESGGGVVQPGRSLRLSCAASGFTFSDFGMHWVRQTPGKGLEWVAIIWYDGSNKFYADSVKGRFTISRDNSKNTLFLQMNSLRAEDTAVYYCARSGVYYGSGSHFDYWGQGTLVTVSS
VL: DIQMTQSPSTLSASVGDRVTITCRASQSISSWLAWYQLKPGKAPKLLIYKASNLETGVPLRFSGSGSGTEFTLTISSLQPDDFATYYCQQYNSYLTFGQGTKVEIK
modifications: peptides N-terminally acetylated and C-terminally amidated
As to B16, the binding score was 1.9.

B17: CL-445827 (antibody, V domains shown)
VH: QVQLVASGGGVVQPGRSLRLSCVASGFTFSFFGMHWVRQTPGRGLEWVAIIWYDGGHKFYADSVKGRFTISRDNSKDTLYLQMNSLRAEDTAVYYCARAEDNMARGNIDYSKYGMDVWGQGTTVTVSS
VL: DIQMTQSPSTLSVSIGDRVTITCRASQSISTWLAWYQQKPGKAPKLLIYKASNLESGVPSRFSGSGSGTDFTLTISGLQPDDFATYYCQQYFSYWTFGQGTKVEIK
modifications: peptides N-terminally acetylated and C-terminally amidated
B17 gave a binding score of 2.5.

B18: CL-440324 (antibody, V domains shown)
VH: QVQLVESGGGVVQPGRSLRLSCAASGFTFRNHGLHWVRQAPGKGLEWVAIIWFDGSNKFYADSVKGRFTISRDNSKNTLYLQMNSLRAEDTAIYYCARVSSHDNGDYGDFDYWGQGTLVTVSS
VL: DIQMTQSPSTLSASVGDRVTITCRASQNISNWLAWYQQKPGKAPKLLIYKASSLESGVPSRFSGSGSGTEFTLTISGLQPDDFATYYCQQYKTYWTFGQGTQVEIK
modifications: peptides N-terminally acetylated and C-terminally amidated
B18 yielded a binding score of 2.6.

B19: CL-447737 (antibody, V domains shown)
VH: QVQLVESGGGVVQPGRSLRLSCAASGFTFSSYGMHWVRQAPGKGLEWVAIIWFDGSNIFYEDSVKGRFTISRDNSKNTLYLQMNSLRAEDTAVYYCAKVWNYDSDYYSMDVWGQGTTVTVSS
VL: not shown
modifications: peptides N-terminally acetylated and C-terminally amidated
For the molecule B19, the binding score was determined as 2.4.

B20: CL-440422 (antibody, V domains shown)
VH: QVQLVESGGGVVQPGRSLRLSCAASGFTFSNFGMHWVRQTPDRGLEWVAIIWFDGSNTFYTDSVKGRFTISRDNYMNTLYLQMNSLRAEDTAVYYCARSFYSDSAGSLFDYWGQGTLVTVSS
VL: DIQMTQSPSTLSASVGDRVTITCRASQNINNWVAWYQQKPGKAPKLLIYKASDLETGVPSRFSGSGSGTEFTLTISGLQPDDFATFYCLQNNHYWTFGQGTKVEIK
modifications: peptides N-terminally acetylated and C-terminally amidated
Consider B20, for which the binding score was 2.5.

B21: CL-447376 (antibody, V domains shown)
VH: QVQLVESGGGVVQPGRSLRLSCAASGFNFNNYGMHWVRQAPVMGLEWVAIIWYDGSNKFYADSVKGRFTISRDNSQNTLFLQMNSLRAEDTGIYYCARSGGEMGNFDYWGQGTLVTVSS
VL: DIVMTQSPLSLPVTLGQPASISCRSSQSLVYSNGDTYLDWFQLRPGQSPRRLIYKVSHRDSGVPDRFSGSGSGTEFTLRISRVEAEDVGIYYCMQGTHYWTFGQGTEVEIK
modifications: peptides N-terminally acetylated and C-terminally amidated
Turning to B21, the binding score turned out to be 2.5.

B22: CL-449724 (antibody, V domains shown)
VH: QVHLVASGGGVVQPGRSLRLSCEVTGFTFSSYGMHWVRQDPGRGLEWVAIIWYDGSNKFYADSVKGRFTISRDNSKNTLYLQMNSLRAEDTAVYYCARSYGILTGYQTKYGMDVWGQGTTVTVSS
VL: not shown
modifications: peptides N-terminally acetylated and C-terminally amidated
As to B22, the binding score stood at 2.5.

B23: CL-464277 (antibody, V domains shown)
VH: QVQLVASGGGVVQPGRSLRLSCAVSGFTFRNYGMHWVRQDPGRGLEWVAIIWYDGSYKFYADSVKGRFTISRDNSKNTLYLQMNSLRAEDTAVYYCARSYGSLTGDQTKYGMDVWGQGTTVSVSS
VL: not shown
modifications: peptides N-terminally acetylated and C-terminally amidated
In turn, B23 displayed a binding score of 2.5.

Source of the values: PMC10720262 (2023).
